Results from US20110305732A1.

Molecular target: human Robo-1 (human) (UniProt Q9Y6N7)
Test: cell-based or functional assay

Sequence of UniProt Q9Y6N7 (Q9Y6N7 26-1651): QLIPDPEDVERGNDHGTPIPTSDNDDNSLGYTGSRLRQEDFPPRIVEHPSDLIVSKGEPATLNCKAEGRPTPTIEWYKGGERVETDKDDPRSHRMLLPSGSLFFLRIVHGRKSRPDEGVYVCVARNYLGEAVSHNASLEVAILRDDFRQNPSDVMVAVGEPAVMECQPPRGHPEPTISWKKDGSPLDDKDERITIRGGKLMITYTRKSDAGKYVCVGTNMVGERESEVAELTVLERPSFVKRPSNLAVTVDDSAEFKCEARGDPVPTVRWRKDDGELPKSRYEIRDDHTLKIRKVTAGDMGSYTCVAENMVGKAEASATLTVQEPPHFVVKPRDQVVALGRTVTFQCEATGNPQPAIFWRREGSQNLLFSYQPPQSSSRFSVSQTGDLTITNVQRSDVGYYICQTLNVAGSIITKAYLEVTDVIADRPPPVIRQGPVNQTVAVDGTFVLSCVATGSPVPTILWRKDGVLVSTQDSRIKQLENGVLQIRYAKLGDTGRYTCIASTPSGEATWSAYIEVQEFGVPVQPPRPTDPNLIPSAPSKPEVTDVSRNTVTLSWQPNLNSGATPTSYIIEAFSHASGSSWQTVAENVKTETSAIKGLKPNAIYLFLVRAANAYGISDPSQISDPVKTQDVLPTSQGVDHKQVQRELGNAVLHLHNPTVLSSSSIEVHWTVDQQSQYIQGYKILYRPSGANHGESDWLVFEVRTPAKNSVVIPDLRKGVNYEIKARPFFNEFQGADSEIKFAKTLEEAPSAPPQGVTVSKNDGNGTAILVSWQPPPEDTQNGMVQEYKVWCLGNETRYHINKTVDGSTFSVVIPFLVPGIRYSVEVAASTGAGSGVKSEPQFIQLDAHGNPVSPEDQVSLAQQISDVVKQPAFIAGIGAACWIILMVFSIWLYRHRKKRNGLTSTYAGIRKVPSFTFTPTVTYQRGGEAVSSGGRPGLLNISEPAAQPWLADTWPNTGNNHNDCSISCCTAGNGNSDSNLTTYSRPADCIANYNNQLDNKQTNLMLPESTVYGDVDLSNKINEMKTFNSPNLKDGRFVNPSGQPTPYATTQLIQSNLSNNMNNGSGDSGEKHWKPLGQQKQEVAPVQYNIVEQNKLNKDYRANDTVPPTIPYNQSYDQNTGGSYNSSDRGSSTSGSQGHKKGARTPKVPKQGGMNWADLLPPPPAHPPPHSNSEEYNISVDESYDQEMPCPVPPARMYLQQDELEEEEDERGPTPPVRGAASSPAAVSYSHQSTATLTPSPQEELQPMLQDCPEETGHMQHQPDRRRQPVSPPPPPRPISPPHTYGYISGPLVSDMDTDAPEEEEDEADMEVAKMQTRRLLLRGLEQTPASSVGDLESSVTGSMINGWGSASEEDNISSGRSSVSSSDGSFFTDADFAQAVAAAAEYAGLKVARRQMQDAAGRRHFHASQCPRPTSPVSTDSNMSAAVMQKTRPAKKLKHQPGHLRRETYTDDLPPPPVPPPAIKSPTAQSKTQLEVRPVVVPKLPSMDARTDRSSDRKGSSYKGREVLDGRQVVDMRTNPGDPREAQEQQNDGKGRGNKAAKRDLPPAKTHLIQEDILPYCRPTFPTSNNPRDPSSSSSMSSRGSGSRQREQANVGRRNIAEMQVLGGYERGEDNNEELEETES

average platelet surface area coverage on collagen at shear flow rate 1900 sec^-1: 3.1%
average surface area covered by platelets on collagen at shear flow rate 1000 sec^-1: 1.3%
mean platelet surface area on fibrinogen after 30 min (platelet spreading): 20.9 µm^2
mean surface area of platelets on collagen after 30 min (platelet spreading): 13.5 µm^2
mean surface area of platelets on fibronectin after 30 min (platelet spreading): 19.3 µm^2
percentage of platelets expressing cell-surface CD62P after ADP stimulation: 13.2%
phosphorylation of Akt during platelet spreading on fibrinogen (fold over basal 1.0) (fold over basal): 2.8
B1: full length human Slit2 (ligand, UniProt O94813-3 31-1521, looked up)
chain: QCSCSGSTVDCHGLALRSVPRNIPRNTERLDLNGNNITRITKTDFAGLRHLRVLQLMENKISTIERGAFQDLKELERLRLNRNHLQLFPELLFLGTAKLYRLDLSENQIQAIPRKAFRGAVDIKNLQLDYNQISCIEDGAFRALRDLEVLTLNNNNITRLSVASFNHMPKLRTFRLHSNNLYCDCHLAWLSDWLRQRPRVGLYTQCMGPSHLRGHNVAEVQKREFVCSGHQSFMAPSCSVLHCPAACTCSNNIVDCRGKGLTEIPTNLPETITEIRLEQNTIKVIPPGAFSPYKKLRRIDLSNNQISELAPDAFQGLRSLNSLVLYGNKITELPKSLFEGLFSLQLLLLNANKINCLRVDAFQDLHNLNLLSLYDNKLQTIAKGTFSPLRAIQTMHLAQNPFICDCHLKWLADYLHTNPIETSGARCTSPRRLANKRIGQIKSKKFRCSGTEDYRSKLSGDCFADLACPEKCRCEGTTVDCSNQKLNKIPEHIPQYTAELRLNNNEFTVLEATGIFKKLPQLRKINFSNNKITDIEEGAFEGASGVNEILLTSNRLENVQHKMFKGLESLKTLMLRSNRITCVGNDSFIGLSSVRLLSLYDNQITTVAPGAFDTLHSLSTLNLLANPFNCNCYLAWLGEWLRKKRIVTGNPRCQKPYFLKEIPIQDVAIQDFTCDDGNDDNSCSPLSRCPTECTCLDTVVRCSNKGLKVLPKGIPRDVTELYLDGNQFTLVPKELSNYKHLTLIDLSNNRISTLSNQSFSNMTQLLTLILSYNRLRCIPPRTFDGLKSLRLLSLHGNDISVVPEGAFNDLSALSHLAIGANPLYCDCNMQWLSDWVKSEYKEPGIARCAGPGEMADKLLLTTPSKKFTCQGPVDVNILAKCNPCLSNPCKNDGTCNSDPVDFYRCTCPYGFKGQDCDVPIHACISNPCKHGGTCHLKEGEEDGFWCICADGFEGENCEVNVDDCEDNDCENNSTCVDGINNYTCLCPPEYTGELCEEKLDFCAQDLNPCQHDSKCILTPKGFKCDCTPGYVGEHCDIDFDDCQDNKCKNGAHCTDAVNGYTCICPEGYSGLFCEFSPPMVLPRTSPCDNFDCQNGAQCIVRINEPICQCLPGYQGEKCEKLVSVNFINKESYLQIPSAKVRPQTNITLQIATDEDSGILLYKGDKDHIAVELYRGRVRASYDTGSHPASAIYSVETINDGNFHIVELLALDQSLSLSVDGGNPKIITNLSKQSTLNFDSPLYVGGMPGKSNVASLRQAPGQNGTSFHGCIRNLYINSELQDFQKVPMQTGILPGCEPCHKKVCAHGTCQPSSQAGFTCECQEGWMGPLCDQRTNDPCLGNKCVHGTCLPINAFSYSCKCLEGHGGVLCDEEEDLFNPCQAIKCKHGKCRLSGLGQPYCECSSGYTGDSCDREISCRGERIRDYYQKQQGYAACQTTKKVSRLECRGGCAGGQCCGPLRSKRRKYSFECTDGSSFVDEVEKVVKCGCTRCVS
